Key:
Test in all cases: SEC-MALS; SEC followed by multiangle light scattering of the SEC-purified Δ123 species
[1] = molecular target: Δ123 E2 dimer (G1a strain H77c) (hepatitis C virus genotype 1a, strain H77c) (UniProt P27958)
[2] = molecular target: Δ123 E2 high-molecular-weight form 1 (HMW1, G1a strain H77c) (hepatitis C virus genotype 1a, strain H77c) (UniProt P27958)
[3] = molecular target: Δ123 E2 high-molecular-weight form 2 (HMW2, G1a strain H77c) (hepatitis C virus genotype 1a, strain H77c) (UniProt P27958)

Δ123 E2 dimer (G1a strain H77c) (from UniProt P27958 384-661) (domain or fragment)
stoichiometry N [1]: 2.1

Δ123 E2 high-molecular-weight form 1 (HMW1, G1a strain H77c) (from UniProt P27958 384-661) (domain or fragment)
stoichiometry N [2]: 51.6

Δ123 E2 high-molecular-weight form 2 (HMW2, G1a strain H77c) (from UniProt P27958 384-661) (domain or fragment)
stoichiometry N [3]: 5.1
